According to patent US20130115227A1 (Merck Sharp & Dohme, published 2013):

Tests used:
[1] = target: T1, amyloid β (Aβ)-derived diffusible ligands (ADDLs) (UniProt P05067 672-713); assay: ELISA, plate coated with ADDLs (50 pmol/well), anti-human IgG-alkaline phosphatase, luminescence; antibody kept one month at 25 °C
T1 construct: domain: Aβ1-42; Soluble oligomers of Aβ1-42, with the number of chains per oligomer not fixed; They were prepared from HFIP film in DMSO/F12 and enriched on a 50 kDa filter; The result sentences say 'ADDLs'; also called ADDL oligomers; soluble …
T1 sequence (P05067 672-713 limits assumed): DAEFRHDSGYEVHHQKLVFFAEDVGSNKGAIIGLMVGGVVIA
Procedure: (§1) The codon AAT for N was mutated to AGT for S in 19.3S33 (SEQ ID NO: 55), ACT for T in 19.3T33 (SEQ ID NO: 56), GAA for E in 19.3E33 (SEQ ID NO: 67), or GAT for D in 19.3D33 (SEQ ID NO: 68), and the new condons in that position were confirmed by DNA sequencing. […] The expression and purification methods were described above in this example.
(§2) Determination of EC50. High protein binding plates (Costar, Corning, Lowell, Mass.), were coated with target ligand in PBS overnight at 4° C. The concentration of coating protein was 100 pmol/well for Aβ40 (American Peptide, Sunnyvale, Calif.) and 50 pmol/well for ADDLs. ADDLs were generated as described in Example 1B. Next day, plates were washed five times with PBS+0.05% Tween-20 (Sigma Aldrich, St. Louis, Mo.) and blocked overnight with Casein blocking buffer (ThermoScientific, Waltham, Mass.) and 0.05% Tween-20. […] After 2 hours at room temperature incubation, the plates were washed and alkaline phosphatase conjugated anti-human IgG (ThermoScientific, Waltham, Mass.) was added at 0.08 μg/ml. After 45 minutes at room temperature incubation, the plates were washed and Tropix® CDP®-Star chemiluminescent substrate (Life Technologies™, Carlsbad, Calif.) was added. Luminescence was detected after 30 minutes on an EnVision® microplate reader (PerkinElmer, Waltham, Mass.).

[2] = target: T1, amyloid β (Aβ)-derived diffusible …; assay: ELISA, plate coated with ADDLs (50 pmol/well), anti-human IgG-alkaline phosphatase, luminescence; antibody kept one month at 40 °C
Procedure: as §1, §2

[3] = target: T1, amyloid β (Aβ)-derived diffusible …; assay: ELISA, plate coated with ADDLs (50 pmol/well), anti-human IgG-alkaline phosphatase, luminescence; antibody not stored (0 timepoint)
Procedure: as §2, with “Mass.). Curve fits were completed using GraphPad Prism (GraphPad Software, Inc., San Diego, Calif.) software.” for “Mass.).”

[4] = target: T1, amyloid β (Aβ)-derived diffusible …; assay: ELISA, plate coated with ADDLs (50 pmol/well), anti-human IgG-alkaline phosphatase, luminescence; antibody kept one month at 4 °C
Procedure: as §1, §2

[5] = target: T1, amyloid β (Aβ)-derived diffusible …; assay: phage/Fab ELISA on ADDLs, anti-M13-HRP detection
Procedure: Biotinylated ADDLs (bADDLs) or monomer Aβ1-40 or Aβ1-42 was added to a high-capacity streptavidin-coated plate (Sigma-Aldrich, St. Louis, Mo.) with 100 μL per well of coating reagent in PBS at 1 μM and incubated for two hours at room temperature. The plates were washed in PBS with 0.05% Tween (six times) and then PBS alone (three times) prior to blocking wells with 5% non-fat dry milk in PBS for one hour at room temperature. The wells were then washed and a serial dilution of antibody samples added to the plates and allowed to bind for two hours at room temperature. After incubation and washing, the antibody binding was detected with a goat anti-human IgG-Fc secondary antibody conjugated to horse radish peroxidase (HRP) (1:1,000; one hour at room temperature). The HRP label was visualized with tetramethyl benzidine (Virolabs, Chantilly, Va.) as a substrate and read at 450 nm on a microplate reader.
After each round of panning, single colonies were randomly picked to produce phage in 96-well plates. The procedures for phage preparation in 96-well plate were similar to that described above except no phage precipitation step was used. Culture plates containing colonies growing in 120 μL of 2×TY medium with 100 μg/ml ampicillin and 0.1% glucose were incubated overnight in a HiGro® shaker (Genomic Solutions, Ann Arbor, Mich.) at 30° C. with shaking at 450 rpm. The phage supernatants (about 100 μL) were directly used for analysis in the ADDL binding ELISA described above. One difference is that the binding of phage to ADDLs was detected with an anti-M13-antibody conjugated to HRP (Amersham Bioscience, GE Healthcare, Waukesha, Wis.).

[6] = target: T1, amyloid β (Aβ)-derived diffusible …; assay: Biacore (SPR)
[7] = target: T1, amyloid β (Aβ)-derived diffusible …; assay: KinExA, equilibrium constant in solution
[8] = target: T1, amyloid β (Aβ)-derived diffusible …; assay: Biacore (SPR); affinity for Aβ1-40 monomer over affinity for ADDLs
[9] = target: T1, amyloid β (Aβ)-derived diffusible …; assay: KinExA; constant for Aβ1-40 monomer over constant for ADDLs
[10] = target: T1, amyloid β (Aβ)-derived diffusible …; assay: ELISA, plate coated with ADDLs (50 pmol/well), 12 point antibody titration, anti-human IgG-alkaline phosphatase, luminescence
Procedure: as §2, with “Mass.). Curve fits were completed using GraphPad Prism (GraphPad Software, Inc., San Diego, Calif.) software.” for “Mass.).”

B1: anti-ADDL antibody 19.3 (antibody, human IgG2, kappa, V domains shown)
VH: EVQLVESGGGLVQPGGSLRLSCAASGFTFSSFGMHWVRQAPGKGLEWVAYISRGSSTIYYADTVKGRFTISRDNAKNSLYLQMNSLRAEDTAVYYCARGITTALDYWGQGTLVTVSS
VL: DVVMTQSPLSLPVTPGEPASISCRSSQSIVHSNGNTYLEWYLQKPGQSPQLLIYKASNRFSGVPDRFSGSGSGTDFTLKISRVEAEDVGVYYCFQGSRLGPSFGQGTKLEIKR
notes: The same paragraph also says all VH were cloned into an IgG1 expression vector; copies: 2 + 2
EC50 (read off the curve) [1]: ~2 nM
EC50 (read off the curve) [2]: ~6 nM
EC50 (read off the curve) [3]: ~1 nM
EC50 (read off the curve) [4]: ~2 nM

B2: Fab clone 14.2 (phage-displayed) (Fab, V domains shown)
VH: EVQLVESGGGLVQPGGSLRLSCAASGFTFSSFGMHWVRQAPGKGLEWVAYISRGSSTIYYADTVKGRFTISRDNAKNSLYLQMNSLRAEDTAVYYCARGITTALDYWGQGTLVTVSS
VL: DVVMTQSPLSLPVTPGEPASISCRSSQSIVHSNGNTYLEWYLQKPGQSPQLLIYKASNRFSGVPDRFSGSGSGTDFTLKISRVEAEDVGVYYCFQGSRVPPGFGQGTKLEIK
notes: VH is deduced from the parental VH being kept in the library
binding result [5]: binds

B3: humanized anti-ADDL antibody h3B3 (antibody, V domains shown)
VH: EVQLVESGGGLVQPGGSLRLSCAASGFTFSSFGMHWVRQAPGKGLEWVAYISRGSSTIYYADTVKGRFTISRDNAKNSLYLQMNSLRAEDTAVYYCARGITTALDYWGQGTLVTVSS
VL: DVVMTQSPLSLPVTPGEPASISCRSSQSIVHSNGNTYLEWYLQKPGQSPQLLIYKASNRFSGVPDRFSGSGSGTDFTLKISRVEAEDVGVYYCFQGSHVPPTFGQGTKLEIK
notes: Parental antibody; also called humanized 3B3; h3B3 (parental)
Kd [6]: 10 nM
Kd [7]: 3.3 nM
Ratio (Aβ monomer/ADDL) [8]: 10
Ratio (Aβ monomer/ADDL) [9]: 13.6

B4: Fab clone 7.2 (phage-displayed) (Fab, V domains shown)
VH: EVQLVESGGGLVQPGGSLRLSCAASGFTFSSFGMHWVRQAPGKGLEWVAYISRGSSTIYYADTVKGRFTISRDNAKNSLYLQMNSLRAEDTAVYYCARGITTALDYWGQGTLVTVSS
VL: DVVMTQSPLSLPVTPGEPASISCRSSQSIVHSNGNTYLEWYLQKPGQSPQLLIYKASNRFSGVPDRFSGSGSGTDFTLKISRVEAEDVGVYYCFQGSYAPPGFGQGTKLEIK
notes: as for B2
binding result [5]: binds

B5: anti-ADDL antibody 19.3S33 (antibody, V domains shown)
VH: EVQLVESGGGLVQPGGSLRLSCAASGFTFSSFGMHWVRQAPGKGLEWVAYISRGSSTIYYADTVKGRFTISRDNAKNSLYLQMNSLRAEDTAVYYCARGITTALDYWGQGTLVTVSS
VL: DVVMTQSPLSLPVTPGEPASISCRSSQSIVHSSGNTYLEWYLQKPGQSPQLLIYKASNRFSGVPDRFSGSGSGTDFTLKISRVEAEDVGVYYCFQGSRLGPSFGQGTKLEIKR
binding result [10]: binds

B6: Fab clone 13.1 (phage-displayed) (Fab, V domains shown)
VH: EVQLVESGGGLVQPGGSLRLSCAASGFTFSSFGMHWVRQAPGKGLEWVAYISRGSSTIYYADTVKGRFTISRDNAKNSLYLQMNSLRAEDTAVYYCARGITTALDYWGQGTLVTVSS
VL: DVVMTQSPLSLPVTPGEPASISCRSSQSIVHSNGNTYLEWYLQKPGQSPQLLIYKASNRFSGVPDRFSGSGSGTDFTLKISRVEAEDVGVYYCFQGSKAHPSFGQGTKLEIK
notes: as for B2
binding result [5]: binds

B7: Fab clone 11.4 (phage-displayed) (Fab, V domains shown)
VH: EVQLVESGGGLVQPGGSLRLSCAASGFTFSSFGMHWVRQAPGKGLEWVAYISRGSSTIYYADTVKGRFTISRDNAKNSLYLQMNSLRAEDTAVYYCARGITTALDYWGQGTLVTVSS
VL: DVVMTQSPLSLPVTPGEPASISCRSSQSIVHSNGNTYLEWYLQKPGQSPQLLIYKASNRFSGVPDRFSGSGSGTDFTLKISRVEAEDVGVYYCFQGSRVPVRFGQGTKLEIK
notes: as for B2
binding result [5]: binds

B8: anti-ADDL antibody 19.3T33 (antibody, V domains shown)
VH: EVQLVESGGGLVQPGGSLRLSCAASGFTFSSFGMHWVRQAPGKGLEWVAYISRGSSTIYYADTVKGRFTISRDNAKNSLYLQMNSLRAEDTAVYYCARGITTALDYWGQGTLVTVSS
VL: DVVMTQSPLSLPVTPGEPASISCRSSQSIVHSTGNTYLEWYLQKPGQSPQLLIYKASNRFSGVPDRFSGSGSGTDFTLKISRVEAEDVGVYYCFQGSRLGPSFGQGTKLEIKR
binding result [10]: binds

B9: Fab clone 9.2 (phage-displayed) (Fab, V domains shown)
VH: EVQLVESGGGLVQPGGSLRLSCAASGFTFSSFGMHWVRQAPGKGLEWVAYISRGSSTIYYADTVKGRFTISRDNAKNSLYLQMNSLRAEDTAVYYCARGITTALDYWGQGTLVTVSS
VL: DVVMTQSPLSLPVTPGEPASISCRSSQSIVHSNGNTYLEWYLQKPGQSPQLLIYKASNRFSGVPDRFSGSGSGTDFTLKISRVEAEDVGVYYCFQGSRAPPFFGQGTKLEIK
notes: as for B2
binding result [5]: binds
